B1: Band 4.1-like protein 1 (Rattus norvegicus (Rat)), Q9WTP0 (parent)
chain: MTTETGPDSEVKKAQEETPQQPEAAAAVTTPVTPAGHSHPETNSNEKHLTQQDTRPAEQSLDMEEKDYCEADGLSERTTPSKAQKSPQKIAKKFKSATCRVTLLDASEYECEVEKHGRGQVLFDLVCEHLNLLEKDYFGLTFCDADSQKNWLDPSKEIKKQIRSSPWNFAFTVKFYPPDPAQLTEDITRYYLCLQLRADIITGRLPCSFVTHALLGSYAVQAELGDHDTEEHVGNYVSELRFAPNQTRELEERIMELHKTYRGMTPGEAEIHFLENAKKLSMYGVDLHHAKDSEGIDIMLGVCANGLLIYRDRLRINRFAWPKILKISYKRSNFYIKIRPGEYEQFESTIGFKLPNHRSAKRLWKVCIEHHTFFRLVSPEPPPKGFLVMGSKFRYSGRTQAQTRQASALIDRPAPFFERSSSKRYTMSRSLDGAEFSRPASVSENHDAGPDGDKREDDAESGGRRSEAEEGEVRTPTKIKELKPEQETTPRHKQEFLDKPEDVLLKHQASINELKRTLKEPNSKLIHRDRDWERERRLPSSPASPSPKGTPEKASERAGLREGSEEKVKPPRPRAPESDTGDEDQDQERDAVFLKDNHLAIERKCSSITVSSTSSLEAEVDFTVIGDYHGGAFEDFSRSLPELDRDKSDSETEGLVFARDLKGPSSQEDESGGIEDSPDRGACSTPELPQFESVKAETMTVSSLAIRKKIEPEAMLQSRVSTADSTQVDGGAPAAKDFMTTPPCITTETISTTMENSLKSGKGAAAMIPGPQTVATEIRSLSPIIGKDVLTSTYGATAETLSTSTTTHVTKTVKGGFSETRIEKRIIITGDEDVDQDQALALAIKEAKLQHPDMLVTKAVVYRETDPSPEERDKKPQES
B2: Voltage-dependent calcium channel gamma-2 subunit (Rattus norvegicus (Rat)), Q71RJ2 (parent)
chain: MGLFDRGVQMLLTTVGAFAAFSLMTIAVGTDYWLYSRGVCKTKSVSENETSKKNEEVMTHSGLWRTCCLEGNFKGLCKQIDHFPEDADYEADTAEYFLRAVRASSIFPILSVILLFMGGLCIAASEFYKTRHNIILSAGIFFVSAGLSNIIGIIVYISANAGDPSKSDSKKNSYSYGWSFYFGALSFIIAEMVGVLAVHMFIDRHKQLRATARATDYLQASAITRIPSYRYRYQRRSRSSSRSTEPSHSRDASPVGVKGFNTLPSTEISMYTLSRDPLKAATTPTATYNSDRDNSFLQVHNCIQKDSKDSLHANTANRRTTPV

Variants of: B1
Settings: with gria1_rat Gria1, P19490
Target sequence in this assay (P19490 whole entry): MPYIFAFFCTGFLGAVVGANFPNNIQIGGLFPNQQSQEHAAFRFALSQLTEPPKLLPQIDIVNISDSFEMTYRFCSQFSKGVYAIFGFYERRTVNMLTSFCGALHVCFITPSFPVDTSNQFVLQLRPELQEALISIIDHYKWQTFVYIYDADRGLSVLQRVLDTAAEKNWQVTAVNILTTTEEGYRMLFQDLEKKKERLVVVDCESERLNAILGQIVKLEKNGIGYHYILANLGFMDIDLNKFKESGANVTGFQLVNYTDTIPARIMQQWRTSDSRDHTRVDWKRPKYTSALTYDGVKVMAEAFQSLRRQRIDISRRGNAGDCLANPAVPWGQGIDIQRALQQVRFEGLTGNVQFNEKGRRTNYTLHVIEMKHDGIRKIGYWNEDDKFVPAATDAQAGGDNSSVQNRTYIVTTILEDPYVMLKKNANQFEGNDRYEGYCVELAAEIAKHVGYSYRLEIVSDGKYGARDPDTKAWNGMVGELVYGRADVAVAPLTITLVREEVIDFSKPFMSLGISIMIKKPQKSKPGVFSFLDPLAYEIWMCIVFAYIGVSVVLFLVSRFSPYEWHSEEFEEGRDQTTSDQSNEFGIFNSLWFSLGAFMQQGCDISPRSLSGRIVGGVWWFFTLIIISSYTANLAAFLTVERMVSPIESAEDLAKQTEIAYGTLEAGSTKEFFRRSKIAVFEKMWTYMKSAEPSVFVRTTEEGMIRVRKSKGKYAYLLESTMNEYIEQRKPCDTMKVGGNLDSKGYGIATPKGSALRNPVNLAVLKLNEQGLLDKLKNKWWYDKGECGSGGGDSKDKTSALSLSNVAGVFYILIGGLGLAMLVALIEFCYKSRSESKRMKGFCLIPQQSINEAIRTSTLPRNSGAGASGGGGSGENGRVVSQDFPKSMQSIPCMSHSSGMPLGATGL

effect of a mutation on the interaction | Variant
decreasing interaction | P852S

Variants of: B2
Settings: with gria1_rat Gria1, P19490
Target sequence in this assay (P19490 whole entry): as above

effect of a mutation on the interaction | Variant
decreasing interaction | V143L

Variants of: B2
Settings: with gria2_rat Gria2, P19491
Chain of gria2_rat Gria2, P19491 (P19491 whole entry): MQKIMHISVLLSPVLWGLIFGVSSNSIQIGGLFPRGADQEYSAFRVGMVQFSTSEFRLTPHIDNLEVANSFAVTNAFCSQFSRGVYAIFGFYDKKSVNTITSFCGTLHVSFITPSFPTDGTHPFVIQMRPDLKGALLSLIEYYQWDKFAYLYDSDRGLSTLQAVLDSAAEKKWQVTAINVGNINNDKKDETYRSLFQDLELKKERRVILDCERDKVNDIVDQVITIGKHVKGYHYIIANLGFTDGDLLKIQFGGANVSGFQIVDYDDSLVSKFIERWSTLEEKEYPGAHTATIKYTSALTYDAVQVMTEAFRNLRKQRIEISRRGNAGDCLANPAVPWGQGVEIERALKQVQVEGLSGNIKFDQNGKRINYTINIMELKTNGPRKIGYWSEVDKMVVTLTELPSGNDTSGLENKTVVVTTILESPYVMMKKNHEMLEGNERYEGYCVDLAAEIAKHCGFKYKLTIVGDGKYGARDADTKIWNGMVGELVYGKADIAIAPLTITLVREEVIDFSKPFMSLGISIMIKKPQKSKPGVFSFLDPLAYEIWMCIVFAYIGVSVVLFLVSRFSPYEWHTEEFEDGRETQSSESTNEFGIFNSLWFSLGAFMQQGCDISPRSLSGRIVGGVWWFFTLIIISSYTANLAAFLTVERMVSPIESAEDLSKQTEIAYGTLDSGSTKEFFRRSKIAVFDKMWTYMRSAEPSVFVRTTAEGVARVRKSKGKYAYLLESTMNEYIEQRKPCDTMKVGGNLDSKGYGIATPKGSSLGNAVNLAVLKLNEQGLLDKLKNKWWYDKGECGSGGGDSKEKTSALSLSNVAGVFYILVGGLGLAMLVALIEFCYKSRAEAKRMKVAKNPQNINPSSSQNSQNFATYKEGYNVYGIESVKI

effect of a mutation on the interaction | Variant
decreasing interaction | V143L

From IntAct's records for PubMed 21376300
